# According to US20220332804A1 (CSL INNOVATION, published 2022):
# Residue numbers refer to the chain shown, from its start.
# T1: human C2 T317A (human, UniProt P06681 21-752)
# T1 sequence: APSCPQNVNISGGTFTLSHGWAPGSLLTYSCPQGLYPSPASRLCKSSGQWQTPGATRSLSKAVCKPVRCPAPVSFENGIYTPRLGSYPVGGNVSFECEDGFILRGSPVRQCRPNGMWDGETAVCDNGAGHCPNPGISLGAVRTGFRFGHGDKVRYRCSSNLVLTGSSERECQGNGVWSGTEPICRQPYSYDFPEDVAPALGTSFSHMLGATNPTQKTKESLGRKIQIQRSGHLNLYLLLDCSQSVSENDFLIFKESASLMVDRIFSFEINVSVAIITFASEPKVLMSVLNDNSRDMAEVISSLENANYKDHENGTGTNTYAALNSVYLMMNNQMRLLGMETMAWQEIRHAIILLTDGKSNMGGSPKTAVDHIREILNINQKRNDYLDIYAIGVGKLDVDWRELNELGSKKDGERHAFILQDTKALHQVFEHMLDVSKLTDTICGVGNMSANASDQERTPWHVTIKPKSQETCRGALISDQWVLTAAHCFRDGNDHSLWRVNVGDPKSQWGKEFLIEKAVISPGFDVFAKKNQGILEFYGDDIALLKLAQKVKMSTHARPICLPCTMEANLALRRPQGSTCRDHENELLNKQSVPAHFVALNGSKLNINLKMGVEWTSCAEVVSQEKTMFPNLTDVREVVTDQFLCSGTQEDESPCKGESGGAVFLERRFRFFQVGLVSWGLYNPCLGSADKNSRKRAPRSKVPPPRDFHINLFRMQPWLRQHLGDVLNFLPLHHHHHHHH
# T2: human C2 D417A (human, UniProt P06681 21-752)
# T2 sequence: T1 sequence with A297T, D397A
# T3: human C2 K550A (human, UniProt P06681 21-752)
# T3 sequence: T1 sequence with A297T, K530A
# T4: human C2 V455A (human, UniProt P06681 21-752)
# T4 sequence: T1 sequence with A297T, V435A
# B1: RF16-226 (antibody, human IgG4 S228P, lambda)
# heavy: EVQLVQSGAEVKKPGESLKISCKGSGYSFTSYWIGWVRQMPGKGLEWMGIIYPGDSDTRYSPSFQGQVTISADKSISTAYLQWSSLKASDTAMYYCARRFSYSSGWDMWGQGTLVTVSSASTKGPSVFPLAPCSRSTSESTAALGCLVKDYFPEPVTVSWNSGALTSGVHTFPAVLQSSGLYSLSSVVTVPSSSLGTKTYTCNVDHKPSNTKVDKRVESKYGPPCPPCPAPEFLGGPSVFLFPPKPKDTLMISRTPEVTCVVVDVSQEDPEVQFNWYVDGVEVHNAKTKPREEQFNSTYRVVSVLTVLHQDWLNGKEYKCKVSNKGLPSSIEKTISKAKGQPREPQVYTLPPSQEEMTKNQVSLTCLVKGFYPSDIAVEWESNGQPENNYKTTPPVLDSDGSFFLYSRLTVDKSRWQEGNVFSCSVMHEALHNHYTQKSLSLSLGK
# light: SYELTQPPSVSVSPGQTARITCSGDALTSKYVAWYQQKSGLAPLLVIYEDTRRPSGIPAKFSGSSSGSVATLTISGAHGDDEADYYCYSTDASGHQRVFGGGTKLTVLSQPKAAPSVTLFPPSSEELQANKATLVCLISDFYPGAVTVAWKADGSPVKAGVETTKPSKQSNNKYAASSYLSLTPEQWKSHRSYSCQVTHEGSTVEKTVAPTECS
# notes: pH-dependent anti-C2 antibody from a phage display library; also called WT
# Tests used:
# Assay in all cases: SPR, antibody captured, C2 as analyte;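 further: biacore SPR at 37 °C, anti-C2 mAbs captured via goat anti-human IgG on CM5 chips, double-referenced sensorgrams fit to a 1:1 kinetic or steady-state model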
# [1] = biological target: T1, human C2 T317A
# [2] = biological target: T2, human C2 D417A
# [3] = biological target: T3, human C2 K550A
# [4] = biological target: T4, human C2 V455A
binder,measurement,setting,value
B1,Kd,[1],9 nM
same,Kd,[2],17.9 nM
same,Kd,[3],15 nM
same,Kd,[4],9 nM
